Laboratory results: patent US20220363732A1 (MAX DELBR CK CENTRUM F R MOLEKULARE MEDIZIN IN DER …, published 2022)

T1: CD5 peptide on HLA-A*02:01 (human)
T1 peptide: SICEGTVEV

T2: CD5 peptide on HLA-A*02:01 (human)
T2 peptide: YLKDGWHMV


Assays:
[1] = target: T1, CD5 peptide on HLA-A*02:01; test: killing
[2] = target: CD5 51-59 epitope (…, SEQ ID NO: 1) in complex with HLA-A2 (human); test: cell-based or functional assay
[3] = target: T2, CD5 peptide on HLA-A*02:01; test: killing

Row | Kd value from peptide titration on peptide loaded T2 cells: fold increase for RNAi-CD5 TCR T cells from HLA-A2+ donors against TCR-transduced T cells from an HLA-A2- donor [2] [fold] | Binder | binding result [3] | further results
1 | – | T-7378 (TCR, V domains shown) Valpha: AQTVTQSQPEMSVQEAETVTLSCTYDTSESDYYLFWYKQPPSRQMILVIRQEAYKQQNATENRFSVNFQKAAKSFSLKISDSQLGDAAMYFCAYRGTSGTYKYIFGTGTMLKVLA Vbeta: DTEVTQTPKHLVMGMTNKKSLKCEQHMGHRAMYWYKQKAKKPPELMFVYSYEKLSINESVPSRFSPECPNSSLLNLHLHALQPEDSALYLCASSRGLAGPYEQYFGPGTRLTVT | – | binding result [1]: recognises
2 | 2.24 | T-20109 TCR (TCR, V domains shown) V domain 1: AQKITQTQPGMFVQEKEAVTLDCTYDTSDPSYGLFWYKQPSSGEMIFLIYQGSYDQQNATEGRYSLNFQKARKSANLVISASQLGDSAMYFCAMREEYSGAGSYQLTFGKGTKLSVIP V domain 2: EPEVTQTPSHQVTQMGQEVILRCVPISNHLYFYWYRQILGQKVEFLVSFYNNEISEKSEIFDDQFSVERPDGSNFTLKIRSTKLEDSAMYFCASSQGPYNEQFFGPGTRLTVLE | – | –
3 | – | T-20109 (TCR, V domains shown) Valpha: AQKITQTQPGMFVQEKEAVTLDCTYDTSDPSYGLFWYKQPSSGEMIFLIYQGSYDQQNATEGRYSLNFQKARKSANLVISASQLGDSAMYFCAMREEYSGAGSYQLTFGKGTKLSVIP Vbeta: EPEVTQTPSHQVTQMGQEVILRCVPISNHLYFYWYRQILGQKVEFLVSFYNNEISEKSEIFDDQFSVERPDGSNFTLKIRSTKLEDSAMYFCASSQGPYNEQFFGPGTRLTVL | recognises | –
4 | – | T-20332 (TCR, V domains shown) Valpha: AQKITQTQPGMFVQEKEAVTLDCTYDTSDPSYGLFWYKQPSSGEMIFLIYQGSYDQQNATEGRYSLNFQKARKSANLVISASQLGDSAMYFCAMREEYSGAGSYQLTFGKGTKLSVIP Vbeta: EPEVTQTPSHQVTQMGQEVILRCVPISNHLYFYWYRQILGQKVEFLVSFYNNEISEKSEIFDDQFSVERPDGSNFTLKIRSTKLEDSAMYFCASSRGPYNEQFFGPGTRLTVL | recognises | –
5 | 1.48 | T-20332 TCR (TCR, V domains shown) V domain 1: AQKITQTQPGMFVQEKEAVTLDCTYDTSDPSYGLFWYKQPSSGEMIFLIYQGSYDQQNATEGRYSLNFQKARKSANLVISASQLGDSAMYFCAMREEYSGAGSYQLTFGKGTKLSVIP V domain 2: EPEVTQTPSHQVTQMGQEVILRCVPISNHLYFYWYRQILGQKVEFLVSFYNNEISEKSEIFDDQFSVERPDGSNFTLKIRSTKLEDSAMYFCASSRGPYNEQFFGPGTRLTVLE | – | –
